# Results from US20240392013A1 (STELEXIS THERAPEUTICS, published 2024).
# T1: IL1RAP on HEK-Blue IL1β / HEK-Blue IL33 reporter cells (UniProt Q9NPH3 21-570, limits assumed)
# T1 sequence (looked up): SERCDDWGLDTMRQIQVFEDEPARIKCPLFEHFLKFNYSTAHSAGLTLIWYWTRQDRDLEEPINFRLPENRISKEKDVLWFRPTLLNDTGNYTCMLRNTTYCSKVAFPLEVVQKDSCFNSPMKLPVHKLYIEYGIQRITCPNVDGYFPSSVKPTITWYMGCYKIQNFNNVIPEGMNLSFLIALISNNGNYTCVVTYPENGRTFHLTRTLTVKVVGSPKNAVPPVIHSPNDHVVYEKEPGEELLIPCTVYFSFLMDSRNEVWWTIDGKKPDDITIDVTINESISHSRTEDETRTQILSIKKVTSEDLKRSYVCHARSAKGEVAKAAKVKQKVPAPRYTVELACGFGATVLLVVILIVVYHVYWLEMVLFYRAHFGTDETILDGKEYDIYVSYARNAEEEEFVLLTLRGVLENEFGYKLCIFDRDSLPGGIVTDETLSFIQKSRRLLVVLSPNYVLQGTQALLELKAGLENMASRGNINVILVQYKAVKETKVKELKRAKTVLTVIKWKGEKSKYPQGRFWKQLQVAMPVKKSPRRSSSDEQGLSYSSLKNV
# T2: recombinant mouse IL1RAP protein (Sino Biological, Cat #52657-M08H) (mouse, UniProt Q61730 21-359)
# T2 construct: Bought protein
# T2 sequence (looked up): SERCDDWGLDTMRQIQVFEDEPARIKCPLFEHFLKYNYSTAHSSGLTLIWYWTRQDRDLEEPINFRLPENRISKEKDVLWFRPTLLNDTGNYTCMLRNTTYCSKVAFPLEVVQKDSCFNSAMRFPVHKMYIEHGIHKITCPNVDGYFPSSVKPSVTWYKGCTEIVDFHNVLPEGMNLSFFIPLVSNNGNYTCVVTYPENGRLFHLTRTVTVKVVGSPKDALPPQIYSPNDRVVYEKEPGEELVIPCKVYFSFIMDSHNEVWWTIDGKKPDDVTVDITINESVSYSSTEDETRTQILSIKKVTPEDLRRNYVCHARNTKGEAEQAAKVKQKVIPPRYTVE
# T3: cyIL1RAP-His (Lake Pharma) (cynomolgus monkey, UniProt A0A2K5X5J5 21-367)
# T3 construct: Bought protein (Lake Pharma, lot 16205819371); also called cynomolgus IL1RAP; monkey IL1RAP; not shown: His tag
# T3 sequence: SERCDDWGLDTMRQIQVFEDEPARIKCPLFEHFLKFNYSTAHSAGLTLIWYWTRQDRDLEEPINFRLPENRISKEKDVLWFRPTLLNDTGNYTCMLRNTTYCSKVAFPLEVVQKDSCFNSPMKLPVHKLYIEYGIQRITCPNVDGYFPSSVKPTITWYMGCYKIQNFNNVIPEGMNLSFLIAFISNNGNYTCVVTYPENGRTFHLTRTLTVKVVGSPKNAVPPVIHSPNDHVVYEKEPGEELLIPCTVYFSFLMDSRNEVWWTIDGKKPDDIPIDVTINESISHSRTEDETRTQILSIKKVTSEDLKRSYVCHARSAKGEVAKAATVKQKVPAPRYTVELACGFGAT
# T4: recombinant human IL1RAP protein, extracellular domain His-tagged (Sino Biological, Cat #10121-H08H) (human, UniProt Q9NPH3 21-367)
# T4 construct: extracellular domain; Bought protein; The Octet analyte is printed as huIL1RAP-His (Sino Biological, lot MB08MA1301) without a catalogue number; also called huIL1RAP-His; hIL1RAP; not shown: His tag
# T4 sequence (looked up): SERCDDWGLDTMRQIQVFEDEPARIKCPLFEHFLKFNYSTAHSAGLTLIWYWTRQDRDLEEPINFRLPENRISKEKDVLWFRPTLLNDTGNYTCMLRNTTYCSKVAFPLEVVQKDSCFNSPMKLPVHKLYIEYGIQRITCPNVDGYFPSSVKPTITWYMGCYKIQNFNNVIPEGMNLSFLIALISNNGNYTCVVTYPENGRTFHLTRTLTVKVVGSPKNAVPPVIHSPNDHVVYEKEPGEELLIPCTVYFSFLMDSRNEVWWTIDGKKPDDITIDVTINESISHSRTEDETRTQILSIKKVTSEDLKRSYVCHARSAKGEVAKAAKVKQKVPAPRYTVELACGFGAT
# Columns and labels:
# [1] = molecular target: T1, IL1RAP on HEK-Blue IL1β / HEK-Blue IL33 …; assay: cell-based or functional assay
# [2] = molecular target: T1, IL1RAP on HEK-Blue IL1β / HEK-Blue IL33 …; assay: cell-based or functional assay; remark: listed apart in the source
# [3] = molecular target: T2, recombinant mouse IL1RAP protein (Sino …); assay: cell-free ELISA, mouse IL1RAP coated; data not shown
# Method: Recombinant human or mouse IL1RAP proteins (Sino Biological, Beijing, China; Cat #10121-H08H and Sino Biological, Cat #52657-M08H respectively) were diluted in PBS, pH 7.4 at concentration of 1 μg/ml, coated on high-binding 384-well clear plates and incubated overnight at 4° C. Following, plates were washed 3× with 0.05% Tween-20 in PBS, pH 7.5 and then blocked with 1% BSA in PBS for 1 hour at room temperature. After 3× washes, wells were incubated with each antibody at the highest concentration of 100 nM followed by seven serial half log dilutions (in 1% BSA and 0.05% Tween-20 in PBS) for 1 hour at room temperature. Plates were then washed 3× and incubated with […] detection antibody (Medna, TX, USA; Cat #D8212, 0.5 μg/ml diluted in 0.02% Tween-20 in PBS). After 5× washes, Supersignal ELISA Pico substrate (Thermofisher, MA, USA; Cat #37069) was applied to wells and chemiluminescent signal was read on Sprectramax L for 200 ms/well. Similarly, detection with specific κ and λ antibodies was conducted to define light chain isotyping.
# [4] = molecular target: T3, cyIL1RAP-His (Lake Pharma); assay: Octet BLI; mAb captured on anti-mouse IgG Fc sensor; cyIL1RAP-His analyte
# Method: (§1) Antibodies were diluted in kinetics buffer (0.1% BSA, 0.02% Tween-20 and 0.05% NaN₃ in PBS) and loaded onto 16 channel anti-mouse IgG Fc capture sensors (AMC, Cat #2001073; Sartorius, Göttingen, Germany). Human, huIL1RAP-His (Sino Biological, lot: MB08MA1301), and monkey, cyIL1RAP-His (Lake Pharma, NY, USA; lot:16205819371) proteins were titrated starting from the highest concentration of 100 nM and followed by 50 nM and 25 nM. Purified antibodies were loaded at 5 μg/ml in kinetics buffer. The experimental parameters selected to determine the kinetic constants were Baseline for 60 s, Loading of antibody to sensor for 180 s, Association of analyte to antibody for 120 s, Dissociation for 1200 s and Regeneration in 10 mM Glycine pH 1.7 for 4×30 s.
# (§2) Regeneration cycle tracking was selected for 12 cycles. Binding to human and cynomolgus IL1RAP was measured and KD (M) kinetics were calculated. Also, the disassociation rate (Kdis) (1/s) and association rate (Kon) (1/Ms) kinetics were calculated (data not shown).
# [5] = molecular target: T4, recombinant human IL1RAP protein, …; assay: Octet BLI; mAb captured on anti-mouse IgG Fc sensor; huIL1RAP-His analyte
# Method: as §1, §2
"IC50, HEK-BlueIL1β NFκB Reporter Assay [1]","Max % Inhibition at 200 nM, HEK-BlueIL1β NFκB Reporter Assay [1]","IC50, HEK-BlueIL33 NFκB Reporter Assay [2]","Max % Inhibition at 200 nM, HEK-BlueIL33 NFκB Reporter Assay [2]",binding result [3],Kd [4],Response [4],koff [4],kon [4],Kd [5],Response [5],koff [5],kon [5],Binder
1.77e-09 M (implied; unit not printed),100%,6.55e-09 M (implied; unit not printed),73%,no binding (tested: 100 nM),2.09 nM,0.263,0.000297 s⁻¹,142000 M⁻¹ s⁻¹,2.18 nM,0.26,0.000337 s⁻¹,154000 M⁻¹ s⁻¹,"STLX2025 (antibody, V domains shown, Purified from hybridoma of immunized Alivamab mice; intact IgG; captured on anti-mouse IgG Fc sensors in Octet; kappa light chain; also called 74804_25H09A) VH: QVQLVQSGAEVKKPGSSVKVSCKASGDTFSNYAITWVRQAPGQGLEWIVGFSPIFGTANYAQKFQGRVTITADKSTSTAYMELSSLISEDTAVYYCAWGSGNFNWFDPWGQGTLVTVSS VL: AIRMTQSPSSFSASTGDRVTITCRASQGISSYLAWYQQKPGKAPKLLIYAASTLQSGVPSRFSGSGSGTDFTLTISSLQSEDFATYYCQQYYSYPLTFGGGTKVEIK"
4.46e-10 M (implied; unit not printed),99%,2.72e-09 M (implied; unit not printed),85%,no binding (tested: 100 nM),2.1 nM,0.3,0.000563 s⁻¹,268000 M⁻¹ s⁻¹,1.67 nM,0.268,0.000491 s⁻¹,294000 M⁻¹ s⁻¹,"STLX2005 (antibody, V domains shown, Purified from hybridoma of immunized Alivamab mice; intact IgG; captured on anti-mouse IgG Fc sensors in Octet; kappa light chain; also called 74804_05B24A) VH: EVQLVDSGGGLVKPGGSLRLSCAATGFTFSNVWMSWVRQGSGKGLEWVGRIKSKTDGGTIDYAAPVKGRFTISRDDPKNTLYLQMNSLKTEDTAVYYCTTGELLGFDYWGQGTLVTVSS VL: DIVMTQSPLSLPVTPGEPASISCRSGQSLLHNNGFNCLAWYLQKPGQSPQLLIYLGSNRASGVPDRFSGSGSGTDFTLKISRVEAEDVGVFYCMQTLQTPITFGQGTRLEIK"
7.37e-10 M (implied; unit not printed),98%,2.49e-09 M (implied; unit not printed),80%,no binding (tested: 100 nM),4.54 nM,0.265,0.000863 s⁻¹,190000 M⁻¹ s⁻¹,2.34 nM,0.308,0.000391 s⁻¹,167000 M⁻¹ s⁻¹,"STLX2001E (antibody, V domains shown, Purified from hybridoma of immunized Alivamab mice; intact IgG by SEC and SDS-PAGE; captured on anti-mouse IgG Fc sensors in Octet; kappa light chain; also called 74804_01E23A) VH: QVQLVQSGAEVKKPGASVKVSCKASGYTFTGYYMHWVRQAPGQGLEWMGWLNPNSGGTDYVQKFQGRVTMTRDTSISTAYMELSRLRSDDTAVYYCARTLYYYGMDVWGQGTTVTVSS VL: not shown"
1.85e-09 M (implied; unit not printed),99%,8.75e-09 M (implied; unit not printed),86%,no binding (tested: 100 nM),1.97 nM,0.327,0.00065 s⁻¹,330000 M⁻¹ s⁻¹,1.07 nM,0.291,0.000361 s⁻¹,336000 M⁻¹ s⁻¹,"STLX2029 (antibody, V domains shown, Purified from hybridoma of immunized Alivamab mice; intact IgG; captured on anti-mouse IgG Fc sensors in Octet; kappa light chain; also called 74804_29D13A) VH: QVQLLQSGAEVKKPGSSVKVSCKASGGTFSIYAIDWVRQAPGQGLEWMGGIIPIFGTANSAQKFQGRVTITADKSTSTAYMELSSLRSEDTAVYYCARNGATSDAFDMWGQGTMVTVSS VL: EIVLTQSPGTLSLSPGERATLSCRASLSVSSNYLAWFQQRPGQAPRLLIYGVSRRATGIPDRFSGSGSGTDFTLTISRLEPEDFAVYYCQQYGSSPLTFGGGTKVEIK"
3.19e-09 M (implied; unit not printed),100%,6.62e-09 M (implied; unit not printed),79%,no binding (tested: 100 nM),0.751 nM,0.273,0.000283 s⁻¹,377000 M⁻¹ s⁻¹,0.596 nM,0.247,0.000234 s⁻¹,392000 M⁻¹ s⁻¹,"STLX2007 (antibody, V domains shown, Purified from hybridoma of immunized Alivamab mice; intact IgG; captured on anti-mouse IgG Fc sensors in Octet; kappa light chain; also called 74804_07K10A) VH: QVQLLQSGAEVKKPGSSVKVSCRASGGTFSIYAIDWVRQAPGQGLEWMGGIIPISGTENSAQNFQDRITITADKSTNTAYMELSSLRSEDTAVYYCARNGATSDAFDIWGQGTMVTVSS VL: EIVLTQSPGTLSLSPGERATLSCRASLSVSSNYLAWFQQRPGQAPRLLIYGVSRRATGIPDRFSGSGSGTDFTLTISRLEPEDFAVYYCQQYGSSPLTFGGGTKVEIK"
2.5e-09 M (implied; unit not printed),99%,1.3e-08 M (implied; unit not printed),77%,no binding (tested: 100 nM),1.41 nM,0.265,0.000459 s⁻¹,326000 M⁻¹ s⁻¹,0.875 nM,0.237,0.000301 s⁻¹,344000 M⁻¹ s⁻¹,"STLX2051 (antibody, V domains shown, Purified from hybridoma of immunized Alivamab mice; intact IgG; captured on anti-mouse IgG Fc sensors in Octet; kappa light chain; also called 74804_51C10A) VH: QVQLLQSGAEVKKPGSSVKVSCKASGGTFNIYAIDWVRQAPGQGLEWMGGIIPIFGTANSAQKFQGRVTITADKSTNTAYMELSSLRSEDTAVYYCARNGATSDAFDIWGQGTMVTVSS VL: EIVLTQSPGTLSLSPGERATLSCRASQSVSSNYLAWFQQRPGQAPRLLIYGVSRRATGIPDRFSGSGSGTDFTLTISRLEPEDFAVYYCQQYGSSPLTFGGGTKVEIK"
